Article PMC3587840 (Nature, 2010)

Tests used:
[1] = molecular target: T1, SEMA4D_(ecto)(F244N/F246S) (human, UniProt Q92854 22-677, F244N | F246S); assay: SPR
T1 sequence: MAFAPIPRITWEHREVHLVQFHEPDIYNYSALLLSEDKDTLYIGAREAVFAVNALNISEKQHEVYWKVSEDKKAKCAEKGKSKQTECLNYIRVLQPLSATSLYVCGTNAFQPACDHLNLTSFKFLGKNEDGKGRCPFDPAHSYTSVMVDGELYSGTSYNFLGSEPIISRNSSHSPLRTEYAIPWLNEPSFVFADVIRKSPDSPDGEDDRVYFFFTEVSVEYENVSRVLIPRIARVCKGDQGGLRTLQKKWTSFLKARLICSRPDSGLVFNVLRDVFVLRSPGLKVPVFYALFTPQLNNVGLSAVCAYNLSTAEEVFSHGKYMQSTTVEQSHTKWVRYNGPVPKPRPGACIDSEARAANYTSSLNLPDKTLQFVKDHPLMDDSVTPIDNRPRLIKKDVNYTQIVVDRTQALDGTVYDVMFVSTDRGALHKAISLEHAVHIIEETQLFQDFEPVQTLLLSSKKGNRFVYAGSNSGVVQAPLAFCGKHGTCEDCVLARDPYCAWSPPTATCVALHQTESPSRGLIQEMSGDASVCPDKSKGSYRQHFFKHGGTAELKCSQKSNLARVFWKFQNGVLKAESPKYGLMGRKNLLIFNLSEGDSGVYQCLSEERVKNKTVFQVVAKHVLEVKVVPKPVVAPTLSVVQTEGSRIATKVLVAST

[2] = molecular target: T2, human SEMA4D_(ecto), C-terminal His-tag (human, UniProt Q92854 22-677); assay: SPR
T2 sequence: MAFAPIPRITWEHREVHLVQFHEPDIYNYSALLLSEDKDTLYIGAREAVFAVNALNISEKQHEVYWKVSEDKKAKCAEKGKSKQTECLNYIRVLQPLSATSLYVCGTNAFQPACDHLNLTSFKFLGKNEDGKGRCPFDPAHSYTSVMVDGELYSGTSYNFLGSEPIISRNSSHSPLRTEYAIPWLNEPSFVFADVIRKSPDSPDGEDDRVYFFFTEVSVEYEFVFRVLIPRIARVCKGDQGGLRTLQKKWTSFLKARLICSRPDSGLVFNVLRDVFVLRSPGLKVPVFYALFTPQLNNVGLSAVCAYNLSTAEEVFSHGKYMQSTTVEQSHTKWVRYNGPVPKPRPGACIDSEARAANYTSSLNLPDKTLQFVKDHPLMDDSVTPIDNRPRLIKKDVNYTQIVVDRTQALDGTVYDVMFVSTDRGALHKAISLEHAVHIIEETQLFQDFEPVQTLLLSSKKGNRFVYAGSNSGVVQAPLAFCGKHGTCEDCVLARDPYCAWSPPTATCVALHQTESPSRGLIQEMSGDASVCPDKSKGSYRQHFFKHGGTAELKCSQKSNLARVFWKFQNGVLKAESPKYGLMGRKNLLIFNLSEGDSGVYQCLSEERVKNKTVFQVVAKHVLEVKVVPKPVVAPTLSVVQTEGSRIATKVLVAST

B1: human PLXNB1_(1–2), biotinylated at an engineered C-terminal tag (domain or fragment)
chain: LQPLPPTAFTPNGTYLQHLARDPTSGTLYLGATNFLFQLSPGLQLEATVSTGPVLDSRDCLPPVMPDECPQAQPTNNPNQLLLVSPGALVVCGSVHQGVCEQRRLGQLEQLLLRPERPGDTQYVAANDPAVSTVGLVAQGLAGEPLLFVGRGYTSRGVGGGIPPITTRALWPPDPQAAFSYEETAKLAVGRLSEYSHHFVSAFARGASAYFLFLRRDLQAQSRAFRAYVSRVCLRDQHYYSYVELPLACEGGRYGLIQAAAVATSREVAHGEVLFAAFSSAAPPTVGRPPSAAAGASGASALCAFPLDEVDRLANRTRDACYTREGRAEDGTEVAYIEYDVNSDCAQLPVDTLDAYPCGSDHTPSPMASRVPLEATPILEWPGIQLTAVAVTMEDGHTIAFLGDSQGQLHRVYLGPGSDGHPYSTQSIQQGSAVSRDLTFDGTFEHLYVMTQSTLLKVPVASCAQHLDCASCLAHRDPYCGWCVLLGRCSRRSECSRGQGPEQWLWSFQPELGCLQ
modifications: biotin on the engineered C-terminal tag (enzymatic)
B1 was tested, and the Kd [1] was 5.5 µM and the binding result [2] was “binds”.
